Test results taken from publication PMC9651861 (Science Advances, 2022).

Assays:
Conditions in all cases: both partners purified
[1] = molecular target: T1, SARS-CoV-2 Spike Glycoprotein (S1) His-Tagged RBD (SARS-CoV-2, UniProt P0DTC2); assay: BLI
T1 construct: source: bought: The Native Antigen Company (REC31849), produced in HEK293 cells

[2] = molecular target: pancreatic bovine trypsin (Bos taurus, UniProt P00760); assay: BLI; His-tagged DesAb (7.5 μM) loaded to saturation on Ni-NTA sensors, trypsin in solution; 170 mM NaCl, 50 mM tris-HCl, 10 mM MgCl2 pH 7.4; 25°C
Chain of pancreatic bovine trypsin (P00760 24-246): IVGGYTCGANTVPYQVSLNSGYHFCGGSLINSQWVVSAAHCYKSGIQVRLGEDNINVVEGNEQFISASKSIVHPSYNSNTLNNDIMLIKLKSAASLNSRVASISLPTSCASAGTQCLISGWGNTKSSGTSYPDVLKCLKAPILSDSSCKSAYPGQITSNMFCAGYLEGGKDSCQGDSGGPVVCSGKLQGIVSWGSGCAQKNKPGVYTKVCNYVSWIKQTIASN

[3] = molecular target: T2, human serum albumin (Homo sapiens, UniProt P02768); assay: BLI; HSA (4 μM) loaded on APS sensors; DesAbs at 1 μM, 500 nM and 250 nM (Nb.B201 at 800 and 400 nM); 170 mM NaCl, 50 mM tris-HCl, 10 mM MgCl2 pH 7.4; 25°C; global fit, Kd = Koff/Kon
T2 construct: also called HSA

[4] = molecular target: T1, SARS-CoV-2 Spike Glycoprotein (S1) …; assay: BLI; remark: listed apart in the source
[5] = molecular target: T2, human serum albumin; assay: BLI
[6] = molecular target: T2, human serum albumin; assay: BLI; HSA (4 μM) loaded on APS sensors; DesAbs at 1 μM, 500 nM and 250 nM (Nb.B201 at 800 and 400 nM); 170 mM NaCl, 50 mM tris-HCl, 10 mM MgCl2 pH 7.4; 25°C; global fit, Kd = Koff/Kon; remark: listed apart in the source
[7] = molecular target: T2, human serum albumin; assay: BLI; remark: listed apart in the source

B1: DesAb-Tryp (VHH)
VHH: EVQLEESGGGLVQPGGSLRLSCAASGFNIKDTYIGWVRQAPGKGEEWVASIYPTSGYTRYADSVKGRFTISADTSKNTAYLQMNSLRAEDTAVYYCAAGSQSGYHFEEFDYWGQGTLVTVSS
[1]
  binding result: no binding (tested: 4 μM)
[2]
  Kd: 1800 nM
[3]
  binding result: no binding (tested: 1 μM)

B2: DesAb-RBD-C2 (VHH)
VHH: EVQLEESGGGLVQPGGSLRLSCAASGFNIKDTYIGWVRQAPGKGEEWVASIYPTSGYTRYADSVKGRFTISADTSKNTAYLQMNSLRAEDTAVYYCAAGSVVADLSVEEFDYWGQGTLVTVSS
[4]
  Kd: 130 nM

B3: DesAb-RBD-C1 (VHH)
VHH: EVQLEESGGGLVQPGGSLRLSCAASGFNIKDTYIGWVRQAPGKGEEWVASIYPTSGYTRYADSVKGRFTISADTSKNTAYLQMNSLRAEDTAVYYCAAGSGSSATEVYEEFDYWGQGTLVTVSS
[4]
  Kd: 210 nM

B4: DesAb-HSA-P1 (VHH)
VHH: EVQLEESGGGLVQPGGSLRLSCAASGFNIKDTYIGWVRQAPGKGEEWVASIYPTSGYTRYADSVKGRFTISADTSKNTAYLQMNSLRAEDTAVYYCAAGSIQKSLQTAESILEEFDYWGQGTLVTVSS
[5]
  Kd: 120 nM

B5: DesAb-HSA-P2 (VHH)
VHH: EVQLEESGGGLVQPGGSLRLSCAASGFNIKDTYIGWVRQAPGKGEEWVASIYPTSGYTRYADSVKGRFTISADTSKNTAYLQMNSLRAEDTAVYYCAAGSAQAGNAEEAEEEFDYWGQGTLVTVSS
[6]
  Kd: 380 nM

B6: DesAb-HSA-D3 (VHH)
VHH: EVQLQESGGGLVQAGGSLRLSCAASGELYALISMGWFRQAPGKEREFVAAISRNGDNTYYTDSVKGRFTISRDNAKNTVELQMNSLKPEDTAVYYCAADKFASPDGSVTIMTNEYDYWGQGTQVTVSD
[5]
  Kd: 180 nM

B7: Nb.B201 (VHH)
VHH: QVQLQESGGGLVQAGGSLRLSCAASGYISDAYYMGWYRQAPGKEREFVATITHGTNTYYADSVKGRFTISRDNAKNTVYLQMNSLKPEDTAVYYCAVLETRSYSFRYWGQGTQVTVSS
notes: also called yeast display-derived anti-HSA nanobody
[7]
  binding result: binds
